Measurements: the RNAGym collection of RNA variant scans (doi:10.7554/elife.90254)

B1: LINE1-mini (parent)
chain: GGCAGAGCUCAACACAGCGUGGCAAAGUGGCUGUGGCUAGACUGCC

Variants of: B1
Test: self-cleavage, relative activity (ratio to wild type); higher = more cleavage; in vitro, sequencing; the parent is a self-cleaving ribozyme
AGCAGAGCUCAACACAGCGUGGCAAAGAGGCUGUGGCUAGACUGCC [G1A U28A] gave a self-cleavage of 0.26.
Work on AGCAGAGCUCAACACAGCGUGGCAAAGCGGCUGUGGCUAGACUGCC [G1A U28C] yielded a self-cleavage of 0.39.
For CGCAGAGCUCAACACAGCGUGGCAAAGUGGCUGUGGCUGGACUGCC [G1C A39G], the self-cleavage was 0.01.
Work on CGCAGAGCUCAACACAGCGUGGCAAAGUGGCUGUGGCUCGACUGCC [G1C A39C] yielded a self-cleavage of 0.04.
CGCAGAGCUCAACACAGCGUGGCAAAGUGGCUGUGGCUUGACUGCC [G1C A39U] showed a self-cleavage of 0.06.
Work on CGCAGAGCUCAACACAGCGUGGCAAAGUGGCUGUGGCUAGAUUGCC [G1C C42U] yielded a self-cleavage of 0.04.
In the case of CGCAGAGCUCAACACAGCGUGGCAAAGUGGCUGUGGCUAGAGUGCC [G1C C42G], the self-cleavage is reported as 0.01.
Variant CGCAGAGCUCAACACAGCGUGGCAAAGUGGCUGUGGCUAGAAUGCC [G1C C42A] has a self-cleavage of 0.02.
For CGCAGAGCUCAACACAGCGUGGGAAAGUGGCUGUGGCUAGACUGCC [G1C C23G], the self-cleavage was 0.08.
Variant CGCAGAGCUCAACACAGCGUGGAAAAGUGGCUGUGGCUAGACUGCC [G1C C23A] has a self-cleavage of 0.16.
CGCAGAGCUCAACACAGCGUGGUAAAGUGGCUGUGGCUAGACUGCC [G1C C23U] showed a self-cleavage of 0.07.
Work on CGCAGAGCUCAACACAGCGUGGCAAAGUGGAUGUGGCUAGACUGCC [G1C C31A] yielded a self-cleavage of 0.02.
In the case of CGCAGAGCUCAACACAGCGUGGCAAAGUGGGUGUGGCUAGACUGCC [G1C C31G], the self-cleavage is reported as 0.01.
CGCAGAGCUCAACACAGCGUGGCAAAGUGGUUGUGGCUAGACUGCC [G1C C31U] gave a self-cleavage of 0.04.
Variant CGCAGAGCUCAACACUGCGUGGCAAAGUGGCUGUGGCUAGACUGCC [G1C A16U] has a self-cleavage of 0.02.
With CGCAGAGCUCAACACGGCGUGGCAAAGUGGCUGUGGCUAGACUGCC [G1C A16G] the self-cleavage was 0.12.
CGCAGAGCUCAACACCGCGUGGCAAAGUGGCUGUGGCUAGACUGCC [G1C A16C] gave a self-cleavage of 0.01.
With CGCAGAGCUCAACACAGCGUGGCCAAGUGGCUGUGGCUAGACUGCC [G1C A24C] the self-cleavage was 0.07.
In the case of CGCAGAGCUCAACACAGCGUGGCUAAGUGGCUGUGGCUAGACUGCC [G1C A24U], the self-cleavage is reported as 0.2.
CGCAGAGCUCAACACAGCGUGGCGAAGUGGCUGUGGCUAGACUGCC [G1C A24G] gave a self-cleavage of 0.29.
CGCAGAGCUCAACACACCGUGGCAAAGUGGCUGUGGCUAGACUGCC [G1C G17C] gave a self-cleavage of 0.06.
Work on CGCAGAGCUCAACACAUCGUGGCAAAGUGGCUGUGGCUAGACUGCC [G1C G17U] yielded a self-cleavage of 0.02.
CGCAGAGCUCAACACAACGUGGCAAAGUGGCUGUGGCUAGACUGCC [G1C G17A] showed a self-cleavage of 0.02.
In the case of CGCAGAGCUCAACACAGGGUGGCAAAGUGGCUGUGGCUAGACUGCC [G1C C18G], the self-cleavage is reported as 0.03.
CGCAGAGCUCAACACAGUGUGGCAAAGUGGCUGUGGCUAGACUGCC [G1C C18U] gave a self-cleavage of 0.05.
In the case of CGCAGAGCUCAACACAGAGUGGCAAAGUGGCUGUGGCUAGACUGCC [G1C C18A], the self-cleavage is reported as 0.04.
Variant AGCAGAGCUCAACACAGCGUGGCAAAGUGGCUGCGGCUAGACUGCC [G1A U34C] has a self-cleavage of 0.14.
With AGCAGAGCUCAACACAGCGUGGCAAAGUGGCUGGGGCUAGACUGCC [G1A U34G] the self-cleavage was 0.29.
Work on AGCAGAGCUCAACACAGCGUGGCAAAGUGGCUGAGGCUAGACUGCC [G1A U34A] yielded a self-cleavage of 0.08.
AGCAGAGCUCAACACAGCGUGGCAAAGUGGCUGUGGCUAGACAGCC [G1A U43A] showed a self-cleavage of 0.05.
In the case of AGCAGAGCUCAACACAGCGUGGCAAAGUGGCUGUGGCUAGACGGCC [G1A U43G], the self-cleavage is reported as 0.02.
Work on AGCAGAGCUCAACACAGCGUGGCAAAGUGGCUGUGGCUAGACCGCC [G1A U43C] yielded a self-cleavage of 0.11.
With CGCAGAGCUCAACACAGCGUGGCAAAGUGGCUGUGGGUAGACUGCC [G1C C37G] the self-cleavage was 0.02.
CGCAGAGCUCAACACAGCGUGGCAAAGUGGCUGUGGAUAGACUGCC [G1C C37A] showed a self-cleavage of 0.02.
For CGCAGAGCUCAACACAGCGUGGCAAAGUGGCUGUGGUUAGACUGCC [G1C C37U], the self-cleavage was 0.02.
CGCAGAGCUCAACACAGCGUAGCAAAGUGGCUGUGGCUAGACUGCC [G1C G21A] showed a self-cleavage of 0.42.
For CGCAGAGCUCAACACAGCGUUGCAAAGUGGCUGUGGCUAGACUGCC [G1C G21U], the self-cleavage was 0.17.
For CGCAGAGCUCAACACAGCGUCGCAAAGUGGCUGUGGCUAGACUGCC [G1C G21C], the self-cleavage was 0.06.
For AGCAGAGCUCAACACAGCGUGGCAAAGUGGCUGUGGCGAGACUGCC [G1A U38G], the self-cleavage was 0.03.
With AGCAGAGCUCAACACAGCGUGGCAAAGUGGCUGUGGCAAGACUGCC [G1A U38A] the self-cleavage was 1.36.
For AGCAGAGCUCAACACAGCGUGGCAAAGUGGCUGUGGCCAGACUGCC [G1A U38C], the self-cleavage was 0.84.
CGCAGAGCUCAACACAGCAUGGCAAAGUGGCUGUGGCUAGACUGCC [G1C G19A] gave a self-cleavage of 0.11.
With CGCAGAGCUCAACACAGCUUGGCAAAGUGGCUGUGGCUAGACUGCC [G1C G19U] the self-cleavage was 0.06.
Work on CGCAGAGCUCAACACAGCCUGGCAAAGUGGCUGUGGCUAGACUGCC [G1C G19C] yielded a self-cleavage of 0.04.
Work on CGCAGAGCUCAACACAGCGUGGCAAAGUGGCUGUGGCUAGACUGUC [G1C C45U] yielded a self-cleavage of 0.15.
Variant CGCAGAGCUCAACACAGCGUGGCAAAGUGGCUGUGGCUAGACUGAC [G1C C45A] has a self-cleavage of 0.16.
CGCAGAGCUCAACACAGCGUGGCAAAGUGGCUGUGGCUAGACUGGC [G1C C45G] showed a self-cleavage of 0.16.
With CGCUGAGCUCAACACAGCGUGGCAAAGUGGCUGUGGCUAGACUGCC [G1C A4U] the self-cleavage was 0.06.
Variant CGCGGAGCUCAACACAGCGUGGCAAAGUGGCUGUGGCUAGACUGCC [G1C A4G] has a self-cleavage of 0.07.
Variant CGCCGAGCUCAACACAGCGUGGCAAAGUGGCUGUGGCUAGACUGCC [G1C A4C] has a self-cleavage of 0.12.
In the case of CGCAGGGCUCAACACAGCGUGGCAAAGUGGCUGUGGCUAGACUGCC [G1C A6G], the self-cleavage is reported as 0.02.
With CGCAGUGCUCAACACAGCGUGGCAAAGUGGCUGUGGCUAGACUGCC [G1C A6U] the self-cleavage was 0.14.
With CGCAGCGCUCAACACAGCGUGGCAAAGUGGCUGUGGCUAGACUGCC [G1C A6C] the self-cleavage was 0.04.
For CGCAGAGCUCAUCACAGCGUGGCAAAGUGGCUGUGGCUAGACUGCC [G1C A12U], the self-cleavage was 0.06.
Variant CGCAGAGCUCAGCACAGCGUGGCAAAGUGGCUGUGGCUAGACUGCC [G1C A12G] has a self-cleavage of 0.02.
Work on CGCAGAGCUCACCACAGCGUGGCAAAGUGGCUGUGGCUAGACUGCC [G1C A12C] yielded a self-cleavage of 0.02.
